The target of experiment [1] is T1, human serum albumin (human, UniProt P02768 25-609).
T1 construct: Bought protein; also called HSA
As to the kind of experiment: SPR ProteOn XPR36, HSA immobilized (GLC sensor), pH 7.4, Langmuir 1:1 fit. How it is done:
(§1) In a first experiment, the affinities of monovalent (ALB00223) and a bivalent ALB23002 construct (T032200003) for human and mouse serum albumin (HSA and MSA, respectively) at pH 6.0 and pH 7.4 were determined on a ProteOn XPR36 instrument (Bio-rad Laboratories, Inc.). HSA or MSA (HSA: Sigma-Aldrich—Sigma, Cat No. A8763; MSA: Albumin Bioscience, Cat No. 2601) was immobilized via amine coupling on a GLC sensor (short matrix, normal capacity). The constructs were injected at 6 different concentrations (between 0.95 and 500 nM) and allowed to associate for 120 s at 45 μL/min and dissociate for 600 s. Evaluation of the sensorgrams was based on the Kinetic Langmuir 1:1 (simultaneous ka/kd) fit.

The target in experiment [2] is T2, mouse serum albumin (mouse, UniProt P07724 25-608).
T2 construct: Bought protein; also called MSA
Put plainly: SPR ProteOn XPR36, MSA immobilized (GLC sensor), pH 7.4, Langmuir 1:1 fit. As to the method:
as §1

Experiment [3] deals with T2, mouse serum albumin. As to the kind of experiment: SPR ProteOn XPR36, MSA immobilized (GLC sensor), pH 6.0, Langmuir 1:1 fit. How it is done: as §1
In experiment [4] the target is T1, human serum albumin. Put plainly: SPR ProteOn XPR36, HSA immobilized (GLC sensor), pH 6.0, Langmuir 1:1 fit. As to the method: as §1
Experiment [5] concerns the target T2, mouse serum albumin. As to the kind of experiment: SPR Biacore 8K+, MSA immobilized (C1 chip), pH 7.4, bivalent analyte fit (KD1). As to the method: (§2) The constructs containing a 9GS and 35GS linker between the albumin-binding building blocks were selected for further characterization. The affinities of the purified ISVD expression constructs for human and mouse serum albumin (HSA and MSA, respectively) at pH 6.0 and pH 7.4 were determined on a Biacore 8K+ instrument. HSA or MSA (HSA: Sigma-Aldrich-Sigma, Cat No. A8763; MSA: Albumin Bioscience, Cat No. 2601) was immobilized on a Series S Sensor Chip C1. The fusion proteins as described in Table 7 above were injected at 9 different concentrations (between 0.6 and 2000 nM) and allowed to associate for 120 s at 30 μL/min and dissociate for 600 s. Evaluation of the sensorgrams was based on the bivalent analyte fit.

Experiment [6] addresses T2, mouse serum albumin. As to the kind of experiment: SPR Biacore 8K+, MSA immobilized (C1 chip), pH 6.0, bivalent analyte fit (kd1). As to the method: as §2
Experiment [7] concerns the target T2, mouse serum albumin. As to the kind of experiment: SPR Biacore 8K+, MSA immobilized (C1 chip), pH 7.4, bivalent analyte fit (kd1). As to the method:
as §2

Experiment [8] addresses T2, mouse serum albumin. Put plainly: SPR Biacore 8K+, MSA immobilized (C1 chip), pH 6.0, bivalent analyte fit (KD1). How it is done: as §2
Experiment [9] has as its target T1, human serum albumin. Put plainly: SPR Biacore 8K+, HSA immobilized (C1 chip), pH 7.4, bivalent analyte fit (KD1). As to the method:
as §2

The target in experiment [10] is T1, human serum albumin. As to the kind of experiment: SPR Biacore 8K+, HSA immobilized (C1 chip), pH 7.4, bivalent analyte fit (ka1). How it is done:
as §2

Experiment [11] has as its target T2, mouse serum albumin. Put plainly: SPR Biacore 8K+, MSA immobilized (C1 chip), pH 7.4, bivalent analyte fit (ka1). How it is done: as §2
For experiment [12], the target named is T2, mouse serum albumin. Put plainly: SPR Biacore 8K+, MSA immobilized (C1 chip), pH 6.0, bivalent analyte fit (ka1). As to the method:
as §2

For experiment [13], the target named is T1, human serum albumin. As to the kind of experiment: SPR Biacore 8K+, HSA immobilized (C1 chip), pH 6.0, bivalent analyte fit (kd1). As to the method: as §2
The target in experiment [14] is T1, human serum albumin. Put plainly: SPR Biacore 8K+, HSA immobilized (C1 chip), pH 6.0, bivalent analyte fit (ka1). As to the method:
as §2

The target in experiment [15] is T1, human serum albumin. As to the kind of experiment: SPR Biacore 8K+, HSA immobilized (C1 chip), pH 6.0, bivalent analyte fit (KD1). How it is done:
as §2

The target in experiment [16] is T1, human serum albumin. Put plainly: SPR Biacore 8K+, HSA immobilized (C1 chip), pH 7.4, bivalent analyte fit (kd1). As to the method: as §2

T2 sequence (P07724 25-608 limits assumed): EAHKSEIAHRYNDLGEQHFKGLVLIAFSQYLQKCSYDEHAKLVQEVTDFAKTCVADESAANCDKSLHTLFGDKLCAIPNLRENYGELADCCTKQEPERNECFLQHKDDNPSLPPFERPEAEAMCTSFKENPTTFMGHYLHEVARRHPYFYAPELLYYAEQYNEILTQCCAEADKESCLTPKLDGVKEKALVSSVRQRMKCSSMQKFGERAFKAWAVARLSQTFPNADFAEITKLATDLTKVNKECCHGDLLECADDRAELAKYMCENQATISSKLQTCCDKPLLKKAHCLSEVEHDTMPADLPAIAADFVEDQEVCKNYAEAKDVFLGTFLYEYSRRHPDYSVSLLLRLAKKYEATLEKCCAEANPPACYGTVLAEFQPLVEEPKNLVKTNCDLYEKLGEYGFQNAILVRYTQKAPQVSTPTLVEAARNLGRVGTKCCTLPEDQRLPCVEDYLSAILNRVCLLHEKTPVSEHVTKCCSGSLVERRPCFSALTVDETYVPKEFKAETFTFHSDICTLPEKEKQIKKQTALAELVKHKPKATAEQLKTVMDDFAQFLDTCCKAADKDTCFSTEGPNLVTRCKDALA

B1: ALB00223 (VHH)
VHH: EVQLVESGGGVVQPGGSLRLSCAASGFTFRSFGMSWVRQAPGKGPEWVSSISGSGSDTLYADSVKGRFTISRDNSKNTLYLQMNSLRPEDTALYYCTIGGSLSRSSQGTLVTVSS
notes: also called ALB00223-A; Alb223
For B1, the Kd with human serum albumin [1] came to 1.37 nM; with mouse serum albumin [2] it was 9.09 nM; with mouse serum albumin [3], 6.02 nM; with human serum albumin [4], 0.69 nM. The koff is 0.000809 s⁻¹ with human serum albumin [1], 0.00697 s⁻¹ with mouse serum albumin [2], 0.00618 s⁻¹ with mouse serum albumin [3] and 0.000593 s⁻¹ in the experiment with human serum albumin [4]. Further, the on-rate (kon) worked out at 592000 M⁻¹ s⁻¹ in the experiment with human serum albumin [1], 767000 M⁻¹ s⁻¹ with mouse serum albumin [2], 1.03e+06 M⁻¹ s⁻¹ with mouse serum albumin [3] and 853000 M⁻¹ s⁻¹ in the experiment with human serum albumin [4].

B2: T026301365 (VHH, not shown: large carriers; small tags and cut ends)
chain: EVQLVESGGGVVQPGGSLRLSCAASGFTFRSFGMSWVRQAPGKGPEWVSSISGSGSDTLYADSVKGRFTISRDNSKNTLYLQMNSLRPEDTALYYCTIGGSLSRSSQGTLVTVSSGGGGSGGGGSGGGGSGGGGSGGGGSGGGGSGGGGSEVQLVESGGGVVQPGGSLRLSCAASGFTFRSFGMSWVRQAPGKGPEWVSSISGSGSDTLYADSVKGRFTISRDNSKNTLYLQMNSLRPEDTALYYCTIGGSLSRSSQGTLVTVSSA
notes: Tetravalent ISVD fusion protein made in P. pastoris; X and Y are undisclosed target ISVDs; also called X-9GS-Y-9GS-ALB23002-35GS-Alb223
Consider B2, for which the Kd in the experiment with mouse serum albumin [5] amounted to 140 nM; in the experiment with mouse serum albumin [8], 100 nM; with human serum albumin [9], 9.9 nM; with human serum albumin [15], 8.8 nM. Also, the dissociation rate constant (koff) in the experiment with mouse serum albumin [6] worked out at 0.0059 s⁻¹; in the experiment with mouse serum albumin [7], 0.0043 s⁻¹; in the experiment with human serum albumin [13] it was 0.0016 s⁻¹; with human serum albumin [16] it was 0.0016 s⁻¹. Also, the on-rate constant (kon) with human serum albumin [10] was determined as 160000 M⁻¹ s⁻¹; with mouse serum albumin [11], 32000 M⁻¹ s⁻¹; with mouse serum albumin [12], 58000 M⁻¹ s⁻¹; in the experiment with human serum albumin [14], 180000 M⁻¹ s⁻¹.

B3: T026301360 (VHH, not shown: large carriers; small tags and cut ends)
chain: EVQLVESGGGVVQPGGSLRLSCAASGFTFRSFGMSWVRQAPGKGPEWVSSISGSGSDTLYADSVKGRFTISRDNSKNTLYLQMNSLRPEDTALYYCTIGGSLSRSSQGTLVTVSSGGGGSGGGSEVQLVESGGGVVQPGGSLRLSCAASGFTFRSFGMSWVRQAPGKGPEWVSSISGSGSDTLYADSVKGRFTISRDNSKNTLYLQMNSLRPEDTALYYCTIGGSLSRSSQGTLVTVSSA
notes: Tetravalent ISVD fusion protein made in P. pastoris; X and Y are undisclosed target ISVDs; also called X-9GS-Y-9GS-ALB23002-9GS-Alb223; X-Y-Alb23002-Alb223
For B3, the Kd in the experiment with mouse serum albumin [5] was determined as 210 nM; with mouse serum albumin [8] it was 210 nM; with human serum albumin [9] it was 12 nM; with human serum albumin [15], 9 nM. The koff with mouse serum albumin [6] was 0.04 s⁻¹; with mouse serum albumin [7], 0.034 s⁻¹; with human serum albumin [13], 0.0015 s⁻¹; with human serum albumin [16] it was 0.0015 s⁻¹. For the same molecule, the kon in the experiment with human serum albumin [10] came to 120000 M⁻¹ s⁻¹; in the experiment with mouse serum albumin [11] it was 170000 M⁻¹ s⁻¹; with mouse serum albumin [12], 190000 M⁻¹ s⁻¹; with human serum albumin [14], 170000 M⁻¹ s⁻¹.

B4: T032200003 (VHH)
chain: EVQLVESGGGVVQPGGSLRLSCAASGFTFRSFGMSWVRQAPGKGPEWVSSISGSGSDTLYADSVKGRFTISRDNSKNTLYLQMNSLRPEDTALYYCTIGGSLSRSSQGTLVTVSSGGGGSGGGGSGGGGSGGGGSGGGGSGGGGSGGGGSEVQLVESGGGVVQPGGSLRLSCAASGFTFRSFGMSWVRQAPGKGPEWVSSISGSGSDTLYADSVKGRFTISRDNSKNTLYLQMNSLRPEDTALYYCTIGGSLSRSSQGTLVTVSS
notes: also called ALB23002-35GS-ALB23002; bivalent ALB23002 construct
On to B4, for which the Kd was 0.865 nM with human serum albumin [1], 1.96 nM with mouse serum albumin [2], 1.61 nM in the experiment with mouse serum albumin [3] and 0.512 nM with human serum albumin [4]. The koff came out at 0.000461 s⁻¹ with human serum albumin [1], 0.00167 s⁻¹ in the experiment with mouse serum albumin [2], 0.00164 s⁻¹ with mouse serum albumin [3] and 0.000388 s⁻¹ with human serum albumin [4]. The on-rate (kon) turned out to be 533000 M⁻¹ s⁻¹ in the experiment with human serum albumin [1], 854000 M⁻¹ s⁻¹ in the experiment with mouse serum albumin [2], 1.02e+06 M⁻¹ s⁻¹ in the experiment with mouse serum albumin [3] and 759000 M⁻¹ s⁻¹ in the experiment with human serum albumin [4].

Source of the values: patent US20250129145A1 (Ablynx, published 2025).
